Consider 8 molecules from patent US20190241654A1 (published 2019).

B1: Ab1119/Ab480 (LC Ab1119, HC Ab480) anti-CD47 antibody (antibody, V domains shown)
VH: QMQLVQSGAEVKKPGSSVKVSCKASGFNIKDYYLHWVRQAPGKGLEWMGWIDPDQGDTEYAQKFQGRVTITRDRSTSTAYMELRSLRAEDTAVYYCNAAYGSSSYPMDYWGQGTLVTVSS
VL: NIQMTQSPSSLSASVGDRVTITCRASQDIHRYLSWFQQKPGKVPKHLIYRANRLVSGVPSRFSGSGSGTEFTLTISSLQPEDFATYYCLQYDEFPYTFGGGTKVEIK
notes: Variant of AbParental
B2: AbParental, parental anti-CD47 antibody (antibody, human IgG4 S228P, kappa, V domains shown)
VH: B1 VH with P14T, K43Q, G44A, G66D, T76M, R84S, A88S, V93M, L115T
VL: NIQMTQSPSAMSASVGDRVTITCKASQDIHRYLSWFQQKPGKVPKHLIYRANRLVSGVPSRFSGSGSGTEFTLTISSLQPEDFATYYCLQYDEFPYTFGGGTKVEIKR
notes: Parental anti-CD47 antibody, described in WO 2013/119714 A1; also called Parental LC-HC; parental antibody
B3: Ab495/Ab356 (LC Ab495, HC Ab356) anti-CD47 antibody (antibody, V domains shown)
VH: B1 VH with L115T
VL: B1 VL with R24K, F36Y, V43A
notes: Framework variant of AbParental
B4: Ab1119/Ab356 (LC Ab1119, HC Ab356) anti-CD47 antibody (antibody, V domains shown)
VH: B1 VH with L115T
VL: B1 VL
notes: Variant of AbParental
B5: Ab495/Ab480 (LC Ab495, HC Ab480) anti-CD47 antibody (antibody, V domains shown)
VH: B1 VH
VL: B1 VL with R24K, F36Y, V43A
notes: as for B3
B6: Ab482/Ab387 (LC Ab482, HC Ab387) anti-CD47 antibody (antibody, V domains shown)
VH: B1 VH with A88S
VL: B1 VL with L11M, R24K
notes: as for B3
B7: Ab1119/Ab387 (LC Ab1119, HC Ab387) anti-CD47 antibody (antibody, V domains shown)
VH: B1 VH with A88S
VL: B1 VL
notes: Variant of AbParental
B8: Ab1119/Ab170 (LC Ab1119, HC Ab170) anti-CD47 antibody (antibody, V domains shown)
VH: B1 VH with A88S, L115T
VL: B1 VL
notes: Variant of AbParental

Positions count from the first letter of the chain named. Where “and” joins values, the source holds several entries; their conditions need not be identical. Equal entries are not always repeated.

T1 sequence (Q08722 19-323): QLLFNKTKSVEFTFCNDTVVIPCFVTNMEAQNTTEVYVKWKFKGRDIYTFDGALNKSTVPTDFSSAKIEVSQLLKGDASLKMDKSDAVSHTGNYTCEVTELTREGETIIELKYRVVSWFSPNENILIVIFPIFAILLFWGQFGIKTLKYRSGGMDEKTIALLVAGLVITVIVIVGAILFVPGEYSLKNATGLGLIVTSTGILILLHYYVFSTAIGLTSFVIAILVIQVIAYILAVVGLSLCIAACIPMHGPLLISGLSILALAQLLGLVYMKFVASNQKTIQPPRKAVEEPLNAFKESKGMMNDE

The first test addresses T1, CD47 on CCRF-CEM cells (human, UniProt Q08722 19-323). The test can be described thus: cell-based or functional assay.
B1: the “Phagocytosis EC50 (ug/mL), Donor 1” value is 0.44 µg/mL and 0.19 µg/mL; the “Phagocytosis EC50 (ug/mL), Donor 2” value is 0.71 µg/mL and 0.24 µg/mL.
As for B2, the “Phagocytosis EC50 (ug/mL), Donor 1” value was found to be 0.38 µg/mL and the “Phagocytosis EC50 (ug/mL), Donor 2” value amounted to 0.13 µg/mL.
For B3 the same measures were 0.68 µg/mL and 0.92 µg/mL.
On to B4, for which the “Phagocytosis EC50 (ug/mL), Donor 1” value is 0.36 µg/mL and 0.31 µg/mL and 0.14 µg/mL.
For the molecule B5, the “Phagocytosis EC50 (ug/mL), Donor 1” value amounted to 0.59 µg/mL and the “Phagocytosis EC50 (ug/mL), Donor 2” value is 0.94 µg/mL.
For B6 the same measures were 0.15 µg/mL and 0.17 µg/mL.
For the molecule B7, the “Phagocytosis EC50 (ug/mL), Donor 2” value was 0.52 µg/mL and 0.21 µg/mL.
With B8, the “Phagocytosis EC50 (ug/mL), Donor 1” value amounted to 0.15 µg/mL and the “Phagocytosis EC50 (ug/mL), Donor 2” value was determined as 0.62 µg/mL.

A further test deals with T1, CD47 on CCRF-CEM cells. The test can be described thus: flow cytometry on antibody-opsonized CCRF-CEM cells, anti-human Alexa 647 secondary, median fluorescence, sigmoidal fit; Donor 2. The protocol:
(§1) Phagocytosis was assayed by serum starving the macrophages in incomplete AIM V media for two hours. During this incubation period, target cells (CCRF-CEM) from two donors (donor 1 and donor 2) were labeled with CSFE (Invitrogen, #C34554) at […] for 15 minutes at room temperature. Cells were rinsed twice with PBS (Hyclone, #SH30028.02) and resuspended at 8×10⁵/mL in AIM V media. Antibody dilutions were prepared at 0.01 ug/ml to 10 ug/ml in half log dilutions and then incubated with the target cell line for 10 minutes at room temperature (a small portion is retained for flow cytometric analysis/cell binding), after which 100 μL of target cell/antibody suspension was added to the macrophage plates. Samples were treated in triplicate and with appropriate isotype controls.
(§2) Samples were incubated for 30 minutes at room temperature, rinsed 2× and then resuspended in FACS buffer and analyzed on the Attune. The EC50 values refer to the concentration that gives half the maximum binding measured as median fluorescent intensity, and was determined by non-linear fit of a sigmoidal dose response within the GraphPad Prism software.
Consider B1, for which the midpoint of the response, the EC50, lay at 0.07 µg/mL.
As for B4, the EC50 (as a rule, the midpoint of the concentration-response curve) came to 0.16 µg/mL.

Another test deals with T1, CD47 on CCRF-CEM cells. Nature of the test: flow cytometry on antibody-opsonized CCRF-CEM cells, anti-human Alexa 647 secondary, median fluorescence, sigmoidal fit; Donor 1. The protocol: as §1, §2
(In flow cytometry, cells or beads pass a laser one at a time.)
In the case of B1, the EC50 was 0.04 µg/mL.
The same measure, in the same setting: for B4 the value was 0.06 µg/mL.

The next test deals with T1, CD47 on CCRF-CEM cells. The test can be described thus: flow cytometry on antibody-opsonized CCRF-CEM cells, anti-human Alexa 647 secondary, median fluorescence, sigmoidal fit. As to the method: as §1, §2
The molecule B1 yielded a 50% effective concentration (EC50) of 0.012 µg/mL.
Still for that read-out and setting: for B2 the value was 0.014 µg/mL.
Still for that read-out and setting: for B3 the value was 0.035 µg/mL; for B4, 0.014 µg/mL and 0.035 µg/mL.
Molecule B5 registered an EC50 of 0.066 µg/mL.
For the molecule B6, the midpoint of the response, the EC50, lay at 0.014 µg/mL.
On the same count and under the same terms, for B7 the value was 0.011 µg/mL and 0.014 µg/mL.
As for B8, the EC50 was 0.015 µg/mL.
